Results published in patent publication US20260028405A1 (ICAHN SCHOOL OF MEDICINE AT MOUNT SINAI, published 2026).

B1: anti-CD16a antibody F9H4 (antibody, V domains shown)
VH: QVQLQQPGSELVRPGASVKLSCKASGYTFTSYWMHWVKQRHGQGLEWIGNIYPGSGSTNYDEKFKSKGTLTVDTSSSTAYMHLGSLTSEDSAVYYCTMRYGGYYGYYFDYWGQGTTLTVSS
VL: EIVLTQSPTTMAASPGEKITITCSTTSSISSNYLHWYQQKPGFSPKLLIYRTSNLASGVPARFSGSGSGTSYSLTIGTMEAEDVATYYCQQGSSIPLTFGAGTKLELKR
notes: also called F9H14
B2: biotinylated human CD64 protein (receptor, UniProt P12314 16-288, looked up)
chain: QVDTTKAVITLQPPWVSVFQEETVTLHCEVLHLPGSSSTQWFLNGTATQTSTPSYRITSASVNDSGEYRCQRGLSGRSDPIQLEIHRGWLLLQVSSRVFTEGEPLALRCHAWKDKLVYNVLYYRNGKAFKFFHWNSNLTILKTNISHNGTYHCSGMGKHRYTSAGISVTVKELFPAPVLNASVTSPLLEGNLVTLSCETKLLLQRPGLQLYFSFYMGSKTLRGRNTSSEYQILTARREDSGLYWCEAATEDGNVLKRSPELELQVLGLQLPTP
modifications: biotinylated
notes: also called human Fc receptor CD64
B3: chF9H4-DANA, chimeric F9H4 with hIgG1 CH2-CH3 carrying D265A N297A (antibody)
heavy: QVQLQQPGSELVRPGASVKLSCKASGYTFTSYWMHWVKQRHGQGLEWIGNIYPGSGSTNYDEKFKSKGTLTVDTSSSTAYMHLGSLTSEDSAVYYCTMRYGGYYGYYFDYWGQGTTLTVSSAKTTAPSVYPLAPVCGDTTGSSVTLGCLVKGYFPEPVTLTWNSGSLSSGVHTFPAVLQSDLYTLSSSVTVTSSTWPSQSITCNVAHPASSTKVDKKIEPRGPTIKPCPPCKCPAPELLGGPSVFLFPPKPKDTLMISRTPEVTCVVVAVSHEDPEVKFNWYVDGVEVHNAKTKPREEQYASTYRVVSVLTVLHQDWLNGKEYKCKVSNKALPAPIEKTISKAKGQPREPQVYTLPPSRDELTKNQVSLTCLVKGFYPSDIAVEWESNGQPENNYKTTPPVLDSDGSFFLYSKLTVDKSRWQQGNVFSCSVMHEALHNHYTQKSLSLSPGK
light: EIVLTQSPTTMAASPGEKITITCSTTSSISSNYLHWYQQKPGFSPKLLIYRTSNLASGVPARFSGSGSGTSYSLTIGTMEAEDVATYYCQQGSSIPLTFGAGTKLELKRADAAPTVSIFPPSSEQLTSGGASVVCFLNNFYPKDINVKWKIDGSERQNGVLNSWTDQDSKDSTYSMSSTLTLTKDEYERHNSYTCEATHKTSTSPIVKSFNRNEC
notes: also called chF8H4-DANA; F9H4-hIG1-DANA; copies: 2 + 2
B4: anti-CD16a antibody 3G8 (antibody)
chain 1: QVTLKESGPGILQPSQTLSLTCSFSGFSLRTSGMGVGWIRQPSGKGLEWLAHIWWDDDKRYNPALKSRLTISKDTSSNQVFLKIASVDTADTATYYCAQINPAWFAYWGQGTLVTVS
chain 2: DIVLTQSPASLAVSLGQRATISCKASQSVDFDGDSFMNWYQQKPGQPPKLLIYTTSNLESGIPARFSASGSGTDFTLNIHPVEEEDTATYYCQQSNEDPYTFGGGTKLELK

How the values were obtained:
[1] = target: T1, recombinant CD16a D2 domain (UniProt P08637 107-208, limits assumed); assay: ELISA, immobilised CD16a D2 domain [panel D2]
T1 construct: domain: D2
Description: FIGS. 4A, 4B, 4C, 4D, 4E, and 4F illustrate the characterization of F9H4. FIG. 4A. An ELISA was performed with immobilized F9H4 or the positive controls, respectively. For detection, biotinylated antibodies against the indicated subclasses of murine IgG were used. From left to right: Anti-mIgG1, anti-mIgG2a, anti-mIgG2b, anti-mIgG3. FIG. 4B. Validation of a bead assay to assess CD16a binding to hIgG1. […] Two left peaks (overlapping): uncoated and DANA mutant. Right peak: hIgG1. FIG. 4C. Bead assay for CD16a binding to hIgG1. hIgG1-coated beads were incubated with 1 μg/mL biotinylated CD16a plus the indicated antibodies, followed by incubation with PE-labelled streptavidin and analysis by flow cytometry. Peaks from left to right: 30, 10, 3, and 1 μg/mL. FIG. 4D. Jukart cells were engineered to express human CD16a and luciferase in response to CD16a engagement. Cells were treated overnight with the indicated antibodies, followed by addition of luciferin and analyses in plate reader. […] Data represent two (FIG. 4D) or three (FIGS. 4A, 4B, 4C, and 4F) independent experiments, are mean+/−SE of quadruplicates (FIG. 4 D), and were analyzed by non-linear regression (FIGS. 4D and 4F).
To shed light into the mechanism by which F9H4 inhibit the cleavage, the two immunoglobulin-like domains, D1 and D2 of CD16a were examined. […] It was determined by ELISA that F9H4 binds full length CD16a and D1, but not D2. […]

human CD16a protein [2] = target: T2, human CD16a protein (human, UniProt P08637 17-208, biotinylated in the bead assay (FIG. 4B, 4C)); assay: ELISA on human CD16a protein
T2 construct: construct not described; also called biotinylated CD16a; FcγRIIIa

hIgG wild type = target: T3, hIgG wild type; assay: ELISA, immobilised antibody detected with biotinylated human CD64
T3 construct: it may be the same as hIgG1
Description: (§1) FIGS. 7A, 7B, and 7C illustrate the properties of chF9H4-DANA, a chimeric antibody in which the variable and the CH1 region of F9H4 is fused to the CH2 and CH3 regions of hIgG1 comprising a D265A N297A (DANA) mutation (labeled as “F9H4-hIG1-DANA” in FIGS. 7A, 7B, and 7C). FIG. 7A. The indicated antibodies were immobilized in ELISA plates and detected by biotinylated human CD64 protein, which was added in the indicated concentrations. Highest absorbance for hIgG wild type. FIG. 7B. ELISA for reactivity of antibodies against human CD16a. Highest absorbance for F9H4-hIG1-DANA. FIG. 7C. Inhibition of CD16a shedding assay with primary NK cells that were treated with 30 ng/mL PMA to induce CD16a shedding. Highest absorbance for F9H4-hIG1-DANA. Data represent three independent experiments (FIGS. 7A, 7B, and 7C) and mean+/−SD of triplicates even though the SD bars are so small that cannot be seen (FIG. 7C).

human CD16a protein [3] = target: T2, human CD16a protein; assay: ELISA on human CD16a
[4] = target: B2; assay: ELISA, immobilised antibody detected with biotinylated human CD64
Description: as §1

[5] = target: human CD16a on cells (primary NK cells; engineered reporter cells) (human, UniProt P08637 17-254); assay: cell-based or functional assay
Chain of human CD16a on cells (primary NK cells; engineered reporter cells) (P08637 17-254, change not shown): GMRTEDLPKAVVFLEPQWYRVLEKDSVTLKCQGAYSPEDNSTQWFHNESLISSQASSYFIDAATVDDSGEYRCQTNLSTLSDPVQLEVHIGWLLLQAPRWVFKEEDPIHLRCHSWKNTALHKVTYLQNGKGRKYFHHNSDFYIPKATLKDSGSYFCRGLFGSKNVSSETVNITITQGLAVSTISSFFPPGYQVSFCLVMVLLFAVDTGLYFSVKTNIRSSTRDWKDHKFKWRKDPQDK

T2 sequence (P08637 17-208 limits assumed): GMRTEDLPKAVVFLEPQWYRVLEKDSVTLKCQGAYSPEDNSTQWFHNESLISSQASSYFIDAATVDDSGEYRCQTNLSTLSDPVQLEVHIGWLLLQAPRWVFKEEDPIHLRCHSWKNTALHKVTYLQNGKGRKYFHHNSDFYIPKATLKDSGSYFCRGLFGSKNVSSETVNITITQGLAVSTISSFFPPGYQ
T1 sequence (P08637 107-208 limits assumed): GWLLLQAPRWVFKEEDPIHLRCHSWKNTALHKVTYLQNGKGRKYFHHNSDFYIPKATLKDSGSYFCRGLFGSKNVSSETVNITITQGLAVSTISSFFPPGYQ

Binder: B1
binding result [1]: no binding (tested: 10 µg/mL) | EC50 (read off the curve) (human CD16a protein [2]): ~0.001 µg/mL

Binder: B2
EC50 (read off the curve) (hIgG wild type): ~0.006 µg/mL

Binder: B3
EC50 (read off the curve) (human CD16a protein [3]): ~0.04 µg/mL | binding result [4]: no binding (tested: 1 µg/mL)

Binder: B4
EC50 (read off the curve), luciferase reporter of CD16a engagement (RLU) [5]: ~0.1 µg/mL
